Data set [1] has as its target T1, PriL-CTD (Saccharomyces cerevisiae, UniProt P20457 316-512, del381-383).
T1 sequence: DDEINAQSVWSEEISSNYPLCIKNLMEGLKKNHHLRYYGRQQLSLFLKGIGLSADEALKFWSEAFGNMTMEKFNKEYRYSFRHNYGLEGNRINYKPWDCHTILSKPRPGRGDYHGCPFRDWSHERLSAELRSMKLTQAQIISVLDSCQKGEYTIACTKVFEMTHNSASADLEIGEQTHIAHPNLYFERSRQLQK
Kind of data set: fluorescence anisotropy; 80 nM DNA; Buffer F: 20 mM HEPES pH 6.8, 150 mM KCl, 1 mM EDTA, 25 C; SPR in buffer F + 0.005% P20, 25 C. The conditions noted are these: protein: recombinant, tags: N-terminal His6, removed by TEV. Background: Fluorescence polarisation rises when a labelled molecule tumbles more slowly, as on binding a larger partner.

Data set [2] has as its target T2, DNA primase large subunit PriL, full length;DNA primase small subunit PriS (Saccharomyces cerevisiae;Saccharomyces …, UniProt P20457;P10363 1-528;1-409, |).
T2 sequence 1: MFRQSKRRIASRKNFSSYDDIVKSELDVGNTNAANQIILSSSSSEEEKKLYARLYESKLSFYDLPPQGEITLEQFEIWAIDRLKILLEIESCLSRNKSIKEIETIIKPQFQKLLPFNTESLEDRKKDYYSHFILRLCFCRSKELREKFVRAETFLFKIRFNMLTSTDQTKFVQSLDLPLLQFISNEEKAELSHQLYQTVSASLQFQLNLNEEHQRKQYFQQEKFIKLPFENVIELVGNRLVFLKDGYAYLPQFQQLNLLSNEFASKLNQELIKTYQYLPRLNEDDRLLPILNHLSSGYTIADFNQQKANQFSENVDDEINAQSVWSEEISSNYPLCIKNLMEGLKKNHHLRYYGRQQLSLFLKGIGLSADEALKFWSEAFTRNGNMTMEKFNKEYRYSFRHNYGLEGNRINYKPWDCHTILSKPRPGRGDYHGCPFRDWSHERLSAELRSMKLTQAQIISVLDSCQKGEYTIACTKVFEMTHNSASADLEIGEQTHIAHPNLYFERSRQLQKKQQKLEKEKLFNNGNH
T2 sequence 2: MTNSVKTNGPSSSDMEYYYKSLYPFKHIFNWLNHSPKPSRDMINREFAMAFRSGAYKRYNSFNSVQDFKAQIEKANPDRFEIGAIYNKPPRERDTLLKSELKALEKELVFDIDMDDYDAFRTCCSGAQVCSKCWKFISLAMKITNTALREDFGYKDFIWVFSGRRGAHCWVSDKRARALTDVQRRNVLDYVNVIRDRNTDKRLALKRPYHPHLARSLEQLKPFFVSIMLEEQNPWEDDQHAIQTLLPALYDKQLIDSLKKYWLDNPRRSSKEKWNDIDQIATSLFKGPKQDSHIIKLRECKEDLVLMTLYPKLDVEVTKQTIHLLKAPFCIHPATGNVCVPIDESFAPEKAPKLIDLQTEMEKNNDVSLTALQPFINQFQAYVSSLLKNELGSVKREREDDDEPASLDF
Kind of data set: fluorescence anisotropy; 20 nM DNA; Buffer F: 20 mM HEPES pH 6.8, 150 mM KCl, 1 mM EDTA, 25 C; SPR in buffer F + 0.005% P20, 25 C. To be noted: protein: recombinant;recombinant; tags: ;; copies: 1;1; label: fluorescein; single strand.

Data set [3] has as its target T1, PriL-CTD. Briefly: fluorescence anisotropy; Kd similar to the 70 µM of the mixed 20mer; data not shown; Buffer F: 20 mM HEPES pH 6.8, 150 mM KCl, 1 mM EDTA, 25 C; SPR in buffer F + 0.005% P20, 25 C. The conditions noted are these: protein: recombinant; tags: N-terminal His6, removed by TEV; label: fluorescein; single strand.

In general, Kd refers to the free concentration of one partner at which half of the binding sites on the other are occupied at equilibrium, for simple one-to-one binding.

B1: ssDNA 20mer (fluorescein) (ssDNA)
DNA: GGTGAGAGGAGAATGGAAGT
For B1, the Kd with PriL-CTD [1] (label: 5' fluorescein, single strand) was 70 ± 0.2 µM.

B2: poly(dT) 40mer (ssDNA)
DNA: TTTTTTTTTTTTTTTTTTTTTTTTTTTTTTTTTTTTTTTT
Regarding B2, in data set [2], the equilibrium dissociation constant (Kd) is 1.7 µM.

B3: poly(dT) 20mer (ssDNA)
DNA: TTTTTTTTTTTTTTTTTTTT
In the case of B3, the binding result with PriL-CTD [3] is on record as “binds”.

B4: dsDNA 20mer (fluorescein) (dsDNA)
DNA 1: GGTGAGAGGAGAATGGAAGT
DNA 2: ACTTCCATTCTCCTCTCACC
With B4, in the data set with PriL-CTD [1] (label: 5' fluorescein on S2, the printed complement S1 carries 5' biotin, blunt), the Kd was determined as 178 ± 1.3 µM.

Source of the values: publication PMC2852410, “Shared Active Site Architecture between the Large Subunit of Eukaryotic Primase and DNA Photolyase”.
